Data from PMC7599842, “PARP1 Deficiency Reduces Tumour Growth by Decreasing E2F1 Hyperactivation: A Novel Mechanism in the Treatment of Cancer” (Cancers, 2020).

Target: T1, PARP1 (poly (ADP-ribose) polymerase-1) (UniProt P09874 1-1014)
T1 construct: PARP1, bought from Trevigen; Commercial protein; catalogue number not given; source: bought: Trevigen
Assay: BLI; GST-E2F1 immobilised on GST biosensors; serial dilutions of PARP1; FortéBio BLItz instrument, global fitting
Conditions: both partners purified

T1 sequence (P09874 whole entry): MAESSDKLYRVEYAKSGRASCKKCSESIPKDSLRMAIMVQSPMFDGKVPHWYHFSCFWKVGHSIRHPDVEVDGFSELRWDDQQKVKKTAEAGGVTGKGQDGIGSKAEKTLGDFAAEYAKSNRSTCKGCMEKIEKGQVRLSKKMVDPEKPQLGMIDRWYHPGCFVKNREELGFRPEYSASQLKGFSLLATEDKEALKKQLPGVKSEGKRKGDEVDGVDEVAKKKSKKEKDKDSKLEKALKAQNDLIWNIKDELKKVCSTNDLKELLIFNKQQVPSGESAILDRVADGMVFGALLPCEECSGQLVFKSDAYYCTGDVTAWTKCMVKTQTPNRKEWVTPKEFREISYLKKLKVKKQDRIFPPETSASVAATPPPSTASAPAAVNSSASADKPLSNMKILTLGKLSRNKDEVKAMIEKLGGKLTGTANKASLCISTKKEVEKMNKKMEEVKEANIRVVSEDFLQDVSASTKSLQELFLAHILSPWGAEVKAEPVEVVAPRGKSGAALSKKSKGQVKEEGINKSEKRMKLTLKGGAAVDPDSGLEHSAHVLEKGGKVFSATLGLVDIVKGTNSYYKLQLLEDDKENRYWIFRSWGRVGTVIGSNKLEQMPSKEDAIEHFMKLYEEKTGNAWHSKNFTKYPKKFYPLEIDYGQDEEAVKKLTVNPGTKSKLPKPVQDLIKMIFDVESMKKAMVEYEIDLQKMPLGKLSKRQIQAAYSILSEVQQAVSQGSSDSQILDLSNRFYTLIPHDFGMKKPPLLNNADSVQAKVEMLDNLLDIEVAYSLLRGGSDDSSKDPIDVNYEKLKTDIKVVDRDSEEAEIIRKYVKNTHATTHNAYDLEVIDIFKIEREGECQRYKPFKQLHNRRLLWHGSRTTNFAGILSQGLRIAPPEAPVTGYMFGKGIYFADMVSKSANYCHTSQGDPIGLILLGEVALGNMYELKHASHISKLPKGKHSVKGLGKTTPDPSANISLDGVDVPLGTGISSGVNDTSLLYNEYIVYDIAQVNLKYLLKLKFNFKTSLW

B1: Recombinant GST-hE2F1 (natural protein)
chain: not shown
notes: E2F1 transcription factor, human (hE2F1); also called GST-E2F1; source: recombinant, purified as described elsewhere [27]
B1 gave a Kd of 22 µM.
